Measurements taken from the supplement of paper PMC9116672.
± gives the standard deviation of the averaged measurements or the uncertainty stated by the source.

Tests used:
[1] = duplex formation free energy ΔG50 (Van't Hoff fit of HRM Tm); higher = less stable duplex; conditions: temperature for dG: 50 °C, NaCl: 500 mM (unadjusted)
Procedure: (§1)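 Duplex of the listed DNA strand with its complement, in 1x NNE buffer (500 mM NaCl, pH 7.0) with 1x EvaGreen. ΔH and ΔS come from a Van't Hoff linear fit of 1/Tm against ln(CT/4) over 1-20 uM, using HRM Tm values.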

[2] = duplex melting temperature (HRM, EvaGreen); higher = more stable duplex
Procedure: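 Listed DNA strand annealed 1:1 with its complementary strand (95 °C 5 min, 0.1 °C/s to 20 °C). Melted in 1x NNE buffer (500 mM NaCl, 10 mM Na2HPO4, 1 mM EDTA, pH 7.0) with 1x EvaGreen on a LightCycler96 (37 to 97 °C, 0.1 °C/s). Tm is the peak of -dF/dT at the stated total duplex concentration; 4 replicates are averaged. PS oligos are non-stereospecific (Rp/Sp mixtures).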

[3] = duplex formation enthalpy ΔH (Van't Hoff fit of HRM Tm); higher = less exothermic duplex formation; conditions: temperature for dG: 50 °C, NaCl: 500 mM (unadjusted)
Procedure: as §1

[4] = duplex formation entropy ΔS (Van't Hoff fit of HRM Tm); higher = smaller entropy loss on duplex formation; conditions: temperature for dG: 50 °C, NaCl: 500 mM (unadjusted)
Procedure: as §1

[5] = backbone: PO-PO (both strands phosphodiester DNA)
[6] = backbone: PS-PO (listed strand fully phosphorothioate, complement phosphodiester)
[7] = backbone: PS-PS (both strands fully phosphorothioate)
[8] = duplex concentration 1 µM, backbone: PO-PO (both strands phosphodiester DNA)
[9] = duplex concentration 1 µM, backbone: PS-PO (listed strand fully phosphorothioate, complement phosphodiester)
[10] = duplex concentration 1 µM, backbone: PS-PS (both strands fully phosphorothioate)
[11] = duplex concentration 2.5 µM, backbone: PO-PO (both strands phosphodiester DNA)
[12] = duplex concentration 2.5 µM, backbone: PS-PO (listed strand fully phosphorothioate, complement phosphodiester)
[13] = duplex concentration 2.5 µM, backbone: PS-PS (both strands fully phosphorothioate)
[14] = duplex concentration 5 µM, backbone: PO-PO (both strands phosphodiester DNA)
[15] = duplex concentration 5 µM, backbone: PS-PO (listed strand fully phosphorothioate, complement phosphodiester)
[16] = duplex concentration 5 µM, backbone: PS-PS (both strands fully phosphorothioate)
[17] = duplex concentration 7.5 µM, backbone: PO-PO (both strands phosphodiester DNA)
[18] = duplex concentration 7.5 µM, backbone: PS-PO (listed strand fully phosphorothioate, complement phosphodiester)
[19] = duplex concentration 7.5 µM, backbone: PS-PS (both strands fully phosphorothioate)
[20] = duplex concentration 10 µM, backbone: PO-PO (both strands phosphodiester DNA)
[21] = duplex concentration 10 µM, backbone: PS-PO (listed strand fully phosphorothioate, complement phosphodiester)
[22] = duplex concentration 10 µM, backbone: PS-PS (both strands fully phosphorothioate)
[23] = duplex concentration 15 µM, backbone: PO-PO (both strands phosphodiester DNA)
[24] = duplex concentration 15 µM, backbone: PS-PO (listed strand fully phosphorothioate, complement phosphodiester)
[25] = duplex concentration 15 µM, backbone: PS-PS (both strands fully phosphorothioate)
[26] = duplex concentration 20 µM, backbone: PO-PO (both strands phosphodiester DNA)
[27] = duplex concentration 20 µM, backbone: PS-PO (listed strand fully phosphorothioate, complement phosphodiester)
[28] = duplex concentration 20 µM, backbone: PS-PS (both strands fully phosphorothioate)

| Sequence | duplex formation free energy ΔG50 [1, 5] [kcal/mol] | duplex formation free energy ΔG50 [1, 6] [kcal/mol] | duplex formation free energy ΔG50 [1, 7] [kcal/mol] | duplex melting temperature [2, 8] [°C] | duplex melting temperature [2, 9] [°C] | duplex melting temperature [2, 10] [°C] | duplex melting temperature [2, 11] [°C] | duplex melting temperature [2, 12] [°C] | duplex melting temperature [2, 13] [°C] | duplex melting temperature [2, 14] [°C] | duplex melting temperature [2, 15] [°C] | duplex melting temperature [2, 16] [°C] | duplex melting temperature [2, 17] [°C] | duplex melting temperature [2, 18] [°C] | duplex melting temperature [2, 19] [°C] | duplex melting temperature [2, 20] [°C] | duplex melting temperature [2, 21] [°C] | duplex melting temperature [2, 22] [°C] | duplex melting temperature [2, 23] [°C] | duplex melting temperature [2, 24] [°C] | duplex melting temperature [2, 25] [°C] | duplex melting temperature [2, 26] [°C] | duplex melting temperature [2, 27] [°C] | duplex melting temperature [2, 28] [°C] | duplex formation enthalpy ΔH [3, 5] [kcal/mol] | duplex formation enthalpy ΔH [3, 6] [kcal/mol] | duplex formation enthalpy ΔH [3, 7] [kcal/mol] | duplex formation entropy ΔS [4, 5] [cal/mol/K] | duplex formation entropy ΔS [4, 6] [cal/mol/K] | duplex formation entropy ΔS [4, 7] [cal/mol/K] |
| --- | --- | --- | --- | --- | --- | --- | --- | --- | --- | --- | --- | --- | --- | --- | --- | --- | --- | --- | --- | --- | --- | --- | --- | --- | --- | --- | --- | --- | --- | --- |
| AACGAATGTCAGCAATT | -12.5 ± 0.15 | -11.05 ± 0.039 | -9.166 ± 0.023 | 62.43 ± 0.59 | 55.7 ± 0.6 | 47.1 ± 0.49 | 64.93 ± 0.41 | 58.37 ± 0.15 | 49.91 ± 0.19 | 66.97 ± 0.37 | 60.36 ± 0.23 | 52.27 ± 0.13 | 68.1 ± 0.45 | 61.59 ± 0.21 | 53.4 ± 0.093 | 69.1 ± 0.15 | 62.44 ± 0.15 | 54.261 ± 0.011 | 70.52 ± 0.15 | 63.69 ± 0.16 | 55.38 ± 0.048 | 71.52 ± 0.29 | 64.46 ± 0.11 | 56.34 ± 0.12 | -74.4 ± 2.8 | -74.7 ± 1.1 | -68.5 ± 1.9 | -192 ± 8.3 | -197 ± 3.4 | -184 ± 5.7 |
| AATGAGGAGTGAAATGG | -12 ± 0.16 | -10.83 ± 0.037 | -8.817 ± 0.012 | 61.5 | 54.3 ± 0.28 | 45.74 ± 0.18 | 62.9 ± 0.89 | 57.29 ± 0.22 | 48.55 ± 0.12 | 65.1 ± 0.71 | 59.317 ± 0.05 | 50.54 ± 0.062 | 66.06 ± 0.59 | 60.42 ± 0.089 | 51.494 ± 0.05 | 67.14 ± 0.48 | 61.271 ± 0.056 | 52.36 ± 0.1 | 68.46 ± 0.62 | 62.43 ± 0.043 | 53.52 ± 0.054 | 69.63 ± 0.3 | 63.28 ± 0.098 | 54.406 ± 0.047 | -73.5 ± 3.3 | -75.7 ± 1.2 | -72.8 ± 1.3 | -190 ± 9.7 | -201 ± 3.6 | -198 ± 4 |
| AATGTCGAACAGCAATT | -12.5 ± 0.15 | -11.23 ± 0.064 | -9.264 ± 0.033 | 63.06 ± 0.22 | 56.56 ± 0.11 | 47.17 ± 0.34 | 65.17 ± 0.47 | 59.08 ± 0.19 | 50.7 ± 0.2 | 67.17 ± 0.36 | 61.32 ± 0.12 | 53 ± 0.2 | 68.45 ± 0.29 | 62.61 ± 0.066 | 54.22 ± 0.19 | 69.46 ± 0.13 | 63.46 ± 0.16 | 54.99 ± 0.23 | 70.74 ± 0.12 | 64.55 ± 0.19 | 56.34 ± 0.18 | 71.86 ± 0.12 | 65.45 ± 0.21 | 57.25 ± 0.45 | -74.4 ± 2.7 | -74.3 ± 1.7 | -63.7 ± 2.3 | -192 ± 8 | -195 ± 5.2 | -169 ± 7 |
| ACATGACTCATCTTAGCCGGCGAG | -19.9 ± 0.5 | -17.8 ± 0.41 | -14.53 ± 0.14 | 77.5 ± 1.1 | 71.03 ± 0.65 | 63.8 ± 0.81 | 79.47 ± 0.48 | 72.33 ± 0.54 | 65.78 ± 0.62 | 80.58 ± 0.42 | 73.6 ± 0.59 | 67.03 ± 0.46 | 81.54 ± 0.25 | 74.24 ± 0.52 | 68.06 ± 0.18 | 82.18 ± 0.17 | 75.03 ± 0.16 | 68.59 ± 0.11 | 82.95 ± 0.13 | 75.79 ± 0.14 | 69.29 ± 0.1 | 83.69 ± 0.2 | 76.42 ± 0.052 | 69.97 ± 0.13 | -128 ± 5.6 | -133 ± 5.9 | -115 ± 2.6 | -336 ± 16 | -356 ± 17 | -311 ± 7.6 |
| ACGGGTCGTTCCGTG | -13.1 ± 0.37 | -11.37 ± 0.043 | -10.5 ± 0.13 |  |  |  |  | 60.97 ± 0.26 | 56.07 ± 0.25 | 71.45 ± 0.49 | 63.292 ± 0.043 | 58.82 ± 0.085 | 73.32 ± 0.23 | 64.64 ± 0.1 | 60 ± 0.17 | 74.34 ± 0.26 | 65.62 ± 0.087 | 60.71 ± 0.21 | 75.77 ± 0.15 | 67.006 ± 0.054 | 61.81 ± 0.19 | 76.55 ± 0.13 | 68.03 ± 0.2 | 62.74 ± 0.27 | -68.9 ± 5.2 | -67 ± 0.95 | -70.7 ± 4.1 | -173 ± 15 | -172 ± 2.8 | -186 ± 12 |
| ACTCGCTCTACCTTAAT | -11.8 ± 0.16 | -10.27 ± 0.06 | -9.165 ± 0.027 | 60.43 ± 0.52 |  | 46.7 ± 0.53 | 62.88 ± 0.38 | 55.24 ± 0.45 | 50.2 ± 0.22 | 65.23 ± 0.53 | 57.69 ± 0.21 | 52.44 ± 0.085 | 66.57 ± 0.5 | 59.03 ± 0.074 | 53.72 ± 0.14 | 67.63 ± 0.18 | 59.946 ± 0.043 | 54.68 ± 0.21 | 69.17 ± 0.14 | 61.16 ± 0.2 | 55.75 ± 0.19 | 70.4 ± 0.34 | 62.06 ± 0.28 | 56.8 ± 0.2 | -68.3 ± 3.3 | -67 ± 2.1 | -63.1 ± 2 | -175 ± 9.7 | -176 ± 6.4 | -167 ± 6.3 |
| ACTGTATCGCCCTA | -12 ± 0.31 | -10.2 ± 0.24 | -8.829 ± 0.042 |  |  | 43.6 ± 0.65 | 64.04 ± 0.18 |  | 47.26 ± 0.29 | 65.3 ± 0.12 | 57.4 ± 0.95 | 50.2 ± 0.33 | 66.7 ± 0.24 | 60.1 ± 0.84 | 51.8 ± 0.45 | 68.35 ± 0.2 | 61.56 ± 0.48 | 54.55 ± 0.45 | 69.55 ± 0.22 | 62.93 ± 0.27 | 57.15 ± 0.42 | 70.51 ± 0.2 | 63.73 ± 0.26 | 59.2 ± 0.59 | -70.4 ± 6 | -56.7 ± 6.8 | -40.3 ± 2.8 | -181 ± 18 | -144 ± 20 | -97.5 ± 8.7 |
| AGACATCCCATACGAGCATCCA | -17.5 ± 0.61 | -16.1 ± 0.3 | -12.13 ± 0.08 | 74.67 ± 0.5 | 67.6 ± 0.69 | 58.4 ± 0.91 | 75.64 ± 0.58 | 69.1 ± 0.53 | 60.9 ± 0.71 | 77.03 ± 0.46 | 70.2 ± 0.62 | 62.6 ± 0.4 | 78.03 ± 0.27 | 71.19 ± 0.51 | 63.56 ± 0.19 | 79.049 ± 0.057 | 71.87 ± 0.23 | 64.391 ± 0.055 | 79.985 ± 0.077 | 72.68 ± 0.15 | 65.3 ± 0.086 | 80.728 ± 0.069 | 73.314 ± 0.051 | 65.89 ± 0.11 | -112 ± 7.7 | -124 ± 4.9 | -90.8 ± 2 | -292 ± 22 | -333 ± 14 | -243 ± 6 |
| AGAGCGCCCTGCTGCC | -15.8 ± 0.28 | -13.3 ± 0.17 | -12.59 ± 0.085 |  |  | 61.69 ± 0.3 | 76.76 ± 0.43 | 69.05 ± 0.38 | 64.26 ± 0.22 | 78.81 ± 0.32 | 71.34 ± 0.29 | 66.24 ± 0.22 | 79.83 ± 0.11 | 72.67 ± 0.34 | 67.29 ± 0.24 | 80.68 ± 0.17 | 73.6 ± 0.23 | 68.17 ± 0.076 | 81.9 ± 0.28 | 74.83 ± 0.1 | 69.33 ± 0.14 | 82.78 ± 0.25 | 75.7 ± 0.12 | 70.195 ± 0.058 | -86.9 ± 3.2 | -74.4 ± 2.6 | -80.8 ± 1.7 | -220 ± 9 | -189 ± 7.4 | -211 ± 5 |
